Drawing on PMC2662861, “An unexpected phosphate binding site in Glyceraldehyde 3-Phosphate Dehydrogenase: Crystal structures of apo, holo and ternary complex of Cryptosporidium parvum enzyme” (BMC Structural Biology, 2009), this text covers Km for one protein.

Substrate in this series: O=C[C@H](O)COP(=O)(O)O
The series is described as follows: purified protein. In kind it is biochemical, Cryptosporidium parvum. As to conditions: 150 μM NAD, 50 mM triethanolamine, 50 mM Na2HPO4, 0.2 mM EDTA, pH 8.8, D-G3H 1.47-5.88 mM supplied as DL-G3H.

B1: CpGAPDH (Cryptosporidium parvum glyceraldehyde 3-phosphate dehydrogenase) (Cryptosporidium parvum) (protein)
chain: MTATLGINGFGRIGRLVLRACMERNDITVVAINDPFMDVEYMAYLLKYDSVHGNFNGTVEVSGKDLCINGKVVKVFQAKDPAEIPWGASGAQIVCESTGVFTTEEKASLHLKGGAKKVIISAPPKDNVPMYVMGVNNTEYDPSKFNVISNASCTTNCLAPLAKIINDKFGIVEGLMTTVHSLTANQLTVDGPSKGGKDWRAGRCAGNNIIPASTGAAKAVGKVIPALNGKLTGMAIRVPTPDVSVVDLTCKLAKPASIEEIYQAVKEASNGPMKGIMGYTSDDVVSTDFIGCKYSSIFDKNACIALNDSFVKLISWYDNESGYSNRLVDLAVYVASRGL
notes: recombinant, N-terminal hexa-histidine tag kept, expressed in E. coli; homotetramer
The Km is the substrate concentration at which the rate is half of its maximum. Turning to B1, the Km came out at 762.7 ± 43.0 µM.
